Literature values, collected in PMC4344624.

Target: VPg (Turnip mosaic virus) (UniProt P89509)
Chain of UniProt P89509 (P89509 1925-2116): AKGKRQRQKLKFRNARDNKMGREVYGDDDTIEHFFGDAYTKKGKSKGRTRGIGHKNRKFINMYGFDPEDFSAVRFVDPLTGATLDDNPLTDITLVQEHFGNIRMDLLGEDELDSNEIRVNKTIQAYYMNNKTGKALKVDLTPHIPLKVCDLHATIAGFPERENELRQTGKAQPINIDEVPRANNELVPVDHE

Pokeweed antiviral protein (from UniProt P10297)
Kd: 29 nM
